According to patent US20140308678A1 (ONCOTHERAPY SCIENCE, published 2014):

Key:
[1] = molecular target: T1, FLAG-HSP90AB1 (WT) (human, UniProt P08238 1-724); experiment: anti-FLAG immunoprecipitation from 293T cells, Western blot with anti-Cdc37 (FIG. 5D); the wild type is the reference
T1 construct: Expressed in cells together with HA-SMYD2 (so it may be methylated by SMYD2 in the assay); not shown: FLAG tag
Protocol: (§1) Then, cell lysates were immunoblotted with anti-FLAG, anti-SMYD2 and anti-ACTB (an internal control) antibodies. Part B depicts the results of immunoprecipitation analysis using 293T cells co-transfected with FLAG-Mock or FLAG-HSP90AB1 (WT) and HA-HSP90AB1 (WT or K531A/K574A) expression vectors in the presence of an HA-SMYD2 expression vector. Immunoprecipitation was performed using anti-FLAG^{(registered trademark)} M2 agarose beads, and samples were immunoblotted with anti-FLAG and anti-HA antibodies. Part C depicts the results of immunoprecipitation analysis using 293T cells co-transfected with FLAG-Mock or FLAG-HSP90AB1 (WT) and HA-HSP90AB1 (WT, K531A or K574A) expression vectors in the presence of an HA-SMYD2 expression vector. Immunoprecipitation was performed using anti-FLAG^{(registered trademark)} M2 agarose beads, and samples were immunoblotted with anti-FLAG and anti-HA antibodies. Part D and E depict that the methylation of K574 on HSP90AB1 is important for binding to some co-chaperones. 293T cells were transfected with FLAG-HSP90AB1 (WT) or FLAG-HSP90AB1 (K531A/K574A) (D), FLAG-Mock, FLAG-HSP90AB1 (WT), FLAG-HSP90AB1 (K531A) or FLAG-HSP90AB1 (K574A) (E) expression vectors, in the presence of an HA-SMYD2 expression vector. […]

[2] = molecular target: T2, FLAG-HSP90AB1 (K531A/K574A) (human, UniProt P08238 1-724); experiment: anti-FLAG immunoprecipitation from 293T cells, Western blot with anti-p23 (FIG. 5D)
T2 construct: Expressed in 293T cells in the presence of HA-SMYD2; also called K531A/K574A substitution of HSP90AB1; not shown: FLAG tag
Protocol: as §1

[3] = molecular target: T3, FLAG-HSP90AB1 (K574A) (human, UniProt P08238 1-724); experiment: anti-FLAG immunoprecipitation from 293T cells, Western blot with anti-p23 (FIG. 5E)
T3 construct: Expressed in 293T cells in the presence of HA-SMYD2; not shown: FLAG tag
Protocol: as §1

[4] = molecular target: T1, FLAG-HSP90AB1 (WT); experiment: anti-FLAG immunoprecipitation from 293T cells, Western blot with anti-p23 (FIG. 5D); the wild type is the reference
Protocol: as §1

T1 sequence (P08238 whole entry): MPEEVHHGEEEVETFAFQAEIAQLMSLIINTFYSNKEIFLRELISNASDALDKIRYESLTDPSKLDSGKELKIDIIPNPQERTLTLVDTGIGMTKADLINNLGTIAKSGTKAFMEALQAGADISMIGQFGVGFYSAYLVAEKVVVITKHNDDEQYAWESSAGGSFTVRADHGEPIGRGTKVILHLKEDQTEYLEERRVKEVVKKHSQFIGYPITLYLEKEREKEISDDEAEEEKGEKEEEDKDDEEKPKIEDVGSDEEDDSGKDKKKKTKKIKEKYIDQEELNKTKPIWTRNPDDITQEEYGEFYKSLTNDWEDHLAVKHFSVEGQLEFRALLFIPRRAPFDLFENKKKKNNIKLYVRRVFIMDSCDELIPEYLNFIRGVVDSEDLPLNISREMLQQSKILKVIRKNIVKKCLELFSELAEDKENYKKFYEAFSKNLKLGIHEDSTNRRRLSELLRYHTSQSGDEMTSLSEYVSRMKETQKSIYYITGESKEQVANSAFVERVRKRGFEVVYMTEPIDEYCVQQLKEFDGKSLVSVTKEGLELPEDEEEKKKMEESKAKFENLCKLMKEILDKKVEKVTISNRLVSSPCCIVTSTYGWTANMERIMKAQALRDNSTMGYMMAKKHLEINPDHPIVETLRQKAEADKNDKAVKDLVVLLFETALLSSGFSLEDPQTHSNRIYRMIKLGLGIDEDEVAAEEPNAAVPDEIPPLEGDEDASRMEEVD
T2 sequence (P08238 whole entry K531A/K574A): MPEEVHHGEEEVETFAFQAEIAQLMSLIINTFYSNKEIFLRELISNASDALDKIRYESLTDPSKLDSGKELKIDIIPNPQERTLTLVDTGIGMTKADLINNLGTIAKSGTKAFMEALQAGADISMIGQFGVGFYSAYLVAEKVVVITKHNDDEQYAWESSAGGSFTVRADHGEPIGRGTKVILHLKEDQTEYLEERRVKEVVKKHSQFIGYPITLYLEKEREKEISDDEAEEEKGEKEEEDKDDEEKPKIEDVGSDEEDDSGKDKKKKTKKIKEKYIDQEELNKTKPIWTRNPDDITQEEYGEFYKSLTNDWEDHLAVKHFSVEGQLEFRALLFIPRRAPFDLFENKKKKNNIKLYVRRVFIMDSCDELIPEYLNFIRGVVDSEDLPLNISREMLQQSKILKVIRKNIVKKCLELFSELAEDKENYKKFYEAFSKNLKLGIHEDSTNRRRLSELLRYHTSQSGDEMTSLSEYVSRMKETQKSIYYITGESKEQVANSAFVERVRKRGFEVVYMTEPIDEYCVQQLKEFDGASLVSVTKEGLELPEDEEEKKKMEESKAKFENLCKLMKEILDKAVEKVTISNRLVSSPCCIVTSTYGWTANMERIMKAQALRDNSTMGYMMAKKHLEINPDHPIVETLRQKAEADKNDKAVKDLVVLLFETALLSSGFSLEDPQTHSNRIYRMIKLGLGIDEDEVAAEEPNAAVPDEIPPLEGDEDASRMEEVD
T3 sequence (P08238 whole entry K574A): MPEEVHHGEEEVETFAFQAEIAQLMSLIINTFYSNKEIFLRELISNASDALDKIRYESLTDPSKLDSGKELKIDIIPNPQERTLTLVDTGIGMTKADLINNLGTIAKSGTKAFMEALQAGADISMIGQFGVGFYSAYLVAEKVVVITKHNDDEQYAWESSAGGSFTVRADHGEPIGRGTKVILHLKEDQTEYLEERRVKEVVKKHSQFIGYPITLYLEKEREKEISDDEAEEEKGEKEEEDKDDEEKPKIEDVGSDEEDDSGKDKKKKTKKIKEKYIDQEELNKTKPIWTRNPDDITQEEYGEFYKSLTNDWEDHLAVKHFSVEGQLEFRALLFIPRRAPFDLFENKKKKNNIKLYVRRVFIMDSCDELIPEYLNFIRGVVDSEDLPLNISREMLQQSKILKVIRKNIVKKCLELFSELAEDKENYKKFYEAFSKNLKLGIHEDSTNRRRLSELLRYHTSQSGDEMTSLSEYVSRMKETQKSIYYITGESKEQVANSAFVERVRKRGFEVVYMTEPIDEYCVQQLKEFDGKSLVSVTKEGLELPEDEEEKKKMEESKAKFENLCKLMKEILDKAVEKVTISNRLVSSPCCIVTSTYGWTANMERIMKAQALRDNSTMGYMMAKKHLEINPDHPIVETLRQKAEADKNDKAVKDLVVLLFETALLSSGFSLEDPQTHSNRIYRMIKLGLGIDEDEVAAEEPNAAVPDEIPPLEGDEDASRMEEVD

binding result [1]	binding result [2]	binding result [3]	binding result [4]	Binder
binds				Cdc37 (other, UniProt Q16543 1-378, looked up, Endogenous in 293T cell lysate) MVDYSVWDHIEVSDDEDETHPNIDTASLFRWRHQARVERMEQFQKEKEELDRGCRECKRKVAECQRKLKELEVAEGGKAELERLQAEAQQLRKEERSWEQKLEEMRKKEKSMPWNVDTLSKDGFSKSMVNTKPEKTEEDSEEVREQKHKTFVEKYEKQIKHFGMLRRWDDSQKYLSDNVHLVCEETANYLVIWCIDLEVEEKCALMEQVAHQTIVMQFILELAKSLKVDPRACFRQFFTKIKTADRQYMEGFNDELEAFKERVRGRAKLRIEKAMKEYEEEERKKRLGPGGLDPVEVYESLPEELQKCFDVKDVQMLQDAISKMDPTDAKYHMQRCIDSGLWVPNSKASEAKEGEEAGPGDPLLEAVPKTGDEKDVSV
	binds	binds	binds	p23 (other, UniProt Q15185 1-160, looked up, Endogenous in 293T cell lysate) MQPASAKWYDRRDYVFIEFCVEDSKDVNVNFEKSKLTFSCLGGSDNFKHLNEIDLFHCIDPNDSKHKRTDRSILCCLRKGESGQSWPRLTKERAKLNWLSVDFNNWKDWEDDSDEDMSNFDRFSEMMNNMGGDEDVDLPEVDGADDDSQDSDDEKMPDLE
